In the supplement of paper PMC9170038:

Test system: MS2 coat protein
Test: apparent KD of MS2 coat protein; designed switch direction (-1 OFF switch, 1 ON switch): -1; higher = weaker reporter binding
Summary of the method: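 Designed RNA switches with common flanks were made on Illumina chips by stalled E. coli RNA polymerase. Titration with SNAP-549-labelled MS2 coat protein doubled from 0.7 or 1.5 nM up to 3 µM. Apparent KD is each design's median over clusters after curve-fitting normalised fluorescence.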

[1] = Eterna round: R95, input ligand: FMN 200 uM
[2] = Eterna round: R95, input ligand: microRNA oligo, concentration not stated
[3] = input ligand: microRNA oligo, concentration not stated
[4] = Eterna round: R95, input ligand: none

## GAUUAUGCAAGCUUUCGGGACAUGAGGAUCACCCAUGUUCGUCUUAUUGAUCUAGGUACGCUGACGUACCUAGAUCU [JL-sv1-2.33 Brourd mod] (puzzle: Sensor v3, turn-off variant 1)
[1]
  apparent KD of MS2 coat protein: 17 nM
[2]
  apparent KD of MS2 coat protein: 65.2 nM

## GCUUUUUGUGUAGGAUAUCGCGCGCGGCGUGUGUGAGAAGGACAUGAGGAUCACCCAUGUAGCAACGGCGGCGCUGGUGUUGUC [-27, -24 kcal and 18% A] (Eterna round: R96, puzzle: Exclusion NG 1)
Input ligand: FMN 200 uM
  apparent KD of MS2 coat protein: 16.7 nM
[3]
  apparent KD of MS2 coat protein: 10.7 nM
Input ligand: none
  apparent KD of MS2 coat protein: 19.5 nM

## AGUACUAACACGCAUGUGUUAGUACAAUAAGCUUGUGAAACAUGAGGAUCACCCAUGUCCUCAUAAGCUCGUCUUAU [salish99_TOv2_r3_068] (puzzle: Sensor v3, turn-off variant 2)
[1]
  apparent KD of MS2 coat protein: 17.6 nM
[2]
  apparent KD of MS2 coat protein: 411 nM
[4]
  apparent KD of MS2 coat protein: 16.1 nM

## CAUGAUCUUCGGAUCAUGGACAUGAGGAUCACCCAUGUCACGAGCAGAUCCUCAUGCAAGCUUUUUGCUCGUCUUAU [Sensor v3 - Turn-off variant 1 - 35] (puzzle: Sensor v3, turn-off variant 1)
[1]
  apparent KD of MS2 coat protein: 62.9 nM
[2]
  apparent KD of MS2 coat protein: 8.73 nM
[4]
  apparent KD of MS2 coat protein: 85.2 nM

## GGUGAGCGAGGAUAUACAUGAGGAUCACCCAUGUGACGCUGUCCUUGGAAGAACCUCUGUAGAAGGCGCGGAAU [Veisrien] (Eterna round: R97, puzzle: Exclusion 3)
Input ligand: FMN 200 uM
  apparent KD of MS2 coat protein: 23.5 nM
Input ligand: none
  apparent KD of MS2 coat protein: 162 nM

## UUAUUAUAUGUAGGAUAUGCAUAUUAUUAUUAUGCAGAAGGACAUGAGGAUCACCCAUGUAUAUUGUUGUUGUAUAUUAUAUAU [Title] (Eterna round: R96, puzzle: Exclusion NG 1)
[3]
  apparent KD of MS2 coat protein: 20.9 nM

## UCUCGUUGGCAAGGAUAUCCUACAUUGUUCUGGCCCGGGCAUGCUACAUGAGGAUCACCCAUGUGGGAGAAGGUGCGUCAUUGC [Design 23] (Eterna round: R96, puzzle: Exclusion NG 2)
Input ligand: FMN 200 uM
  apparent KD of MS2 coat protein: 146 nM
[3]
  apparent KD of MS2 coat protein: 77.4 nM
Input ligand: none
  apparent KD of MS2 coat protein: 140 nM

## UCCGAACAUGAGGAUCACCCAUGUGAGGAUAUCCCGAGAUUAAAUGCCGCAAGAAGGCGGAGAAGGCGCAUGGG [Biditiinen] (puzzle: Exclusion 1)
[1]
  apparent KD of MS2 coat protein: 20.6 nM
[2]
  apparent KD of MS2 coat protein: 17.3 nM
[4]
  apparent KD of MS2 coat protein: 19.5 nM

## GCCAGAGCAGGAUAUUCAGUAUCACACAUGAGGAUCACCCAUGUCCAGCGAAAGCUGGAGGGAGAAGGGCUCUGGC [Fiskers Ex 5 - 13] (puzzle: Exclusion 5)
[1]
  apparent KD of MS2 coat protein: 40.8 nM
[2]
  apparent KD of MS2 coat protein: 108 nM
[4]
  apparent KD of MS2 coat protein: 298 nM

## UUUUUUGUUGUGAGGAUAUCGUAUUUUUUUUGUUACGAGAAGGCACAUGAGGAUCACCCAUGUUUUUUGAUGUU [JR_BMOE4_Sub065] (puzzle: Brourd's mod of Exclusion 4)
[2]
  apparent KD of MS2 coat protein: 28.4 nM

## GUCAUGUAAGGAUAUCUUACAUGUGACUUCGGUCACUGUCAAGAGAAGGUACAUGAGGAUCACCCAUGUUCGAC [Ex4-3: 52] (puzzle: Exclusion 4)
[2]
  apparent KD of MS2 coat protein: 16.2 nM

## AAGAAACGGCAGGAUAUCCAGUCGAGAGAAAUAGGAGAAGGGCCAACAUGAGGAUCACCCAUGUCGGUGGCCUC [Rariinon] (Eterna round: R97, puzzle: Exclusion 6)
Input ligand: FMN 200 uM
  apparent KD of MS2 coat protein: 145 nM
Input ligand: none
  apparent KD of MS2 coat protein: 78.5 nM

## AGAGAGUCAGGAUAUCGGAGGGCGAGGAGAGGAGAGAGAGACGAGAAGGGACAUGAGGAUCACCCAUGUAGGUG [JR_Exclusion4)Sub018] (puzzle: Exclusion 4)
[1]
  apparent KD of MS2 coat protein: 197 nM
[2]
  apparent KD of MS2 coat protein: 268 nM
[4]
  apparent KD of MS2 coat protein: 400 nM

## GUGGCACAUGAGGAUCACCCAUGUCAGGAUAUCGCGUGGUUUUUUUCGGCCGCGCGCGCGAGAAGGGACGUCUU (Eterna round: R96, puzzle: Exclusion 1)
Input ligand: FMN 200 uM
  apparent KD of MS2 coat protein: 26.8 nM
[3]
  apparent KD of MS2 coat protein: 22.2 nM
Input ligand: none
  apparent KD of MS2 coat protein: 30.9 nM
